The values below are quoted from earlier work in US20120245089A1, “USE OF THE SPARC MICROENVIRONMENT SIGNATURE IN THE TREATMENT OF CANCER” (ABRAXIS BIOSCIENCE, LLC, priority 2009, published 2012).

Data set [1] has as its system HOSE (human ovarian surface epithelial) and ovarian cancer cells. The settings on record: exogenous SPARC; concentration-dependent.
The next data set has as its system neuroblastoma tumor. As to conditions: purified SPARC; in vivo xenograft model.

B1: SPARC: matrix-associated protein; exogenous or purified SPARC in cited studies (protein, UniProt P09486 18-303, looked up)
SPARC: APQQEALPDETEVVEETVAEVTEVSVGANPVQVEVGEFDDGAEETEEEVVAENPCQNHHCKHGKVCELDENNTPMCVCQDPTSCPAPIGEFEKVCSNDNKTFDSSCHFFATKCTLEGTKKGHKLHLDYIGPCKYIPPCLDSELTEFPLRMRDWLKNVLVTLYERDEDNNLLTEKQKLRVKKIHENEKRLEAGDHPVELLARDFEKNYNMYIFPVHWQFGQLDQHPIDGYLSHTELAPLRAPLIPMEHCTTRFFETCDLDNDKYIALDEWAGCFGIKQKDIDKDLVI
Take B1: the “Proliferation of HOSE and ovarian cancer cells” value in data set [1] was “reduce the proliferation”. Also, the “Apoptosis in ovarian cancer cells” value in the data set on ovarian cancer cells is on record as “induces apoptosis”. Further, the “Angiogenesis and neuroblastoma tumor growth” value in the data set with neuroblastoma tumor was “inhibit angio-gnesis and impair neuroblastoma tumor growth”.
